Drawing on US20240067758A1 (UCB, published 2024), this text covers Kd for 35 molecules.

Changes are numbered by the printed parent chain. In names and notes the source's numbering stands. Where two headings read alike, the source gives them in different places.

The target of assay [1] is T1, Human IL22 (human, UniProt Q9GZX6 34-179).
T1 construct: IL22 of the Biacore and cell assays
T1 sequence: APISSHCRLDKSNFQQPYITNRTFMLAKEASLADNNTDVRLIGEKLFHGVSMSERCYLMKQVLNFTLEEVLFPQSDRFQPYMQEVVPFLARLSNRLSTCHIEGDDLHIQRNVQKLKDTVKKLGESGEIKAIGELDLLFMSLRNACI
Briefly: SPR (Biacore); Fab variant, human IL22.

Assay [2] addresses T1, Human IL22. Nature of the assay: SPR (Biacore); Fab variant, human IL22. This is another data set of the same source. A general note: In SPR one partner is held on a chip, and binding of the other changes the refractive index at the surface.

B1: 11041gL1 C91S gH1 D54E (Fab, V domains shown)
VH: EVQLVESGGGLVQPGGSLRLSCAVSGFSLSSYAMIWVRQAPGKGLEWIGIIDIEGSTYYASWAKGRFTISRDSSKNTVYLQMNSLRAEDTAVYYCARDRFVGVDIFDPWGQGTLVTVSS
VL: AVVLTQSPSSLSASVGDRVTITCQASEDIYTNLAWYQQKPGKAPKLLIYWASTLASGVPSRFSGSGSGTDFTLTISSLQPEDFATYYCQASVYGNSADSRYTFGGGTKVEIK
notes: V-regions only; also called 11041gL2gH3
Broadly, the Kd is the equilibrium constant for the complex coming apart. High values mean lower affinity, low ones higher affinity. For the molecule B1, the affinity in assay [1], expressed as Kd, was 0.0281 nM.

B2: 11041gL6 C91S gH5 D54E (Fab, V domains shown)
VH: B1 VH with S73N
VL: B1 VL with V3Q
notes: also called 11041gL11gH14
On to B2, for which the Kd in assay [1] came to 0.0161 nM.

B3: 11041gL6 C91S S96A gH8 D54E (Fab, V domains shown)
VH: B1 VH with V78L
VL: AVQLTQSPSSLSASVGDRVTITCQASEDIYTNLAWYQQKPGKAPKLLIYWASTLASGVPSRFSGSGSGTDFTLTISSLQPEDFATYYCQASVYGNAADSRYTFGGGTKVEIKR
notes: also called 11041gL13gH15
Regarding B3, binding in assay [1] was characterised by a dissociation constant (Kd) of 0.0849 nM.

B4: 11041gL1 C91S S96AgH17 (Fab, V domains shown)
VH: B1 VH with I48V, S73N, V78L
VL: B1 VL with S96A
notes: V-regions only; also called 11041gL10gH17; gH17 = gH11 D54E
With B4, binding in assay [1] was put at a Kd of 0.0398 nM. This Kd is about 2.1-fold lower than that of the molecule before.

B5: 11041gL7 C91S gH8 D54E (Fab, V domains shown)
VH: B1 VH with V78L
VL: B1 VL with V2I, V3Q
notes: V-regions only; also called 11041gL12gH15
In turn, B5 had a Kd in assay [1] of 0.115 nM. Compared with the last molecule, the Kd is about 2.9-fold higher.

B6: 11041gL1 N95D gH1 (Fab, V domains shown)
VH: B1 VH with E54D
VL: B1 VL with S91C, N95D
notes: V-regions only; also called 11041gL8gH1
In the case of B6, the Kd in assay [1] was 0.129 nM.

B7: 11041gL1gH1 D107E (Fab, V domains shown)
VH: B1 VH with E54D, D107E
VL: B1 VL with S91C
notes: V-regions only; also called 11041gL1gH4
Consider B7, for which the Kd in assay [1] stood at 0.657 nM.

B8: 11041gL1gH1 D54E (Fab, V domains shown)
VH: B1 VH
VL: B1 VL with S91C
notes: V-regions only; also called 11041gL1gH3
In assay [1], B8 registered a Kd of 0.166 nM.

B9: 11041gL7 C91S S96A gH8 D54E (Fab, V domains shown)
VH: B1 VH with V78L
VL: B1 VL with V2I, V3Q, S96A
notes: V-regions only; also called 11041gL14gH15
The molecule B9 had a Kd in assay [1] of 0.104 nM. This Kd is about 1.6-fold lower than that of the molecule before.

B10: 11041gL1 C91S gH9 (Fab, V domains shown)
VH: B1 VH with V24A, E54D
VL: B1 VL
notes: V-regions only; also called 11041gL2gH9
In turn, B10 returned a Kd in assay [1] of 0.0114 nM.

B11: 11041gL1gH5 (Fab, V domains shown)
VH: B1 VH with E54D, S73N
VL: B1 VL with S91C
notes: V-regions only
In the case of B11, in assay [1], the Kd is 0.378 nM.

B12: 11041gL6 C91S gH12 D54E (Fab, V domains shown)
VH: B1 VH with G49S, S73N, V78L
VL: B1 VL with V3Q
notes: V-regions only; also called 11041gL11gH18
On to B12, for which, in assay [1], the equilibrium dissociation constant (Kd) amounted to 0.0444 nM.

B13: 11041gL6 C91S S96A gH12 D54E (Fab, V domains shown)
VH: B1 VH with G49S, S73N, V78L
VL: B3 VL
notes: also called 11041gL13gH18
The molecule B13 registered a Kd in assay [1] of 0.0517 nM.

B14: 11041gL1gH1 (Fab, V domains shown)
VH: B1 VH with E54D
VL: B1 VL with S91C
notes: Human Fab format (human kappa, human gamma-1 CH1); V-regions only
For B14, in assay [1], the Kd worked out at 0.642 nM. Against the preceding molecule, the Kd is about 12-fold higher.

B15: 11041gL7 C91S gH12 D54E (Fab, V domains shown)
VH: B1 VH with G49S, S73N, V78L
VL: B1 VL with V2I, V3Q
notes: V-regions only; also called 11041gL12gH18
The molecule B15 showed a Kd in assay [1] of 0.0739 nM. This Kd is about 8.7-fold lower than that of the molecule before.

B16: 11041gL1 C91S S96AgH18 (Fab, V domains shown)
VH: B1 VH with G49S, S73N, V78L
VL: B1 VL with S96A
notes: V-regions only; also called 11041gL10gH18; gH18 = gH12 D54E
For B16, the Kd in assay [1] is 0.0454 nM. Compared with the last molecule, the Kd is about 1.6-fold lower.

B17: 11041gL7 C91S S96A gH5 D54E (Fab, V domains shown)
VH: B1 VH with S73N
VL: B1 VL with V2I, V3Q, S96A
notes: also called 11041gL14gH14
The molecule B17 came in with a Kd in assay [1] of 0.0266 nM.

B18: 11041gL1gH1 G55A (Fab, V domains shown)
VH: B1 VH with E54D, G55A
VL: B1 VL with S91C
notes: V-regions only; also called 11041gL1gH2
On to B18, for which the equilibrium dissociation constant (Kd) in assay [1] stood at 0.627 nM.

B19: 11041gL1 S96A gH1 D54E (Fab, V domains shown)
VH: B1 VH
VL: B1 VL with S91C, S96A
notes: V-regions only; also called 11041gL9gH3
B19 had a Kd in assay [1] of 0.0888 nM.

B20: 11041gL6 C91S S96A gH11 D54E (Fab, V domains shown)
VH: B1 VH with I48V, S73N, V78L
VL: B3 VL
notes: also called 11041gL13gH17
B20 displayed a Kd in assay [1] of 0.0524 nM. This Kd lies about 1.7-fold lower than the previous one.

B21: 11041gL7 C91S gH5 D54E (Fab, V domains shown)
VH: B1 VH with S73N
VL: B1 VL with V2I, V3Q
notes: also called 11041gL12gH14
Take B21: the Kd in assay [1] stood at 0.0293 nM.

B22: 11041gL6gH1 (Fab, V domains shown)
VH: B1 VH with E54D
VL: B1 VL with V3Q, S91C
notes: V-regions only
B22 gave a Kd in assay [1] of 0.369 nM.

B23: 11041gL7 C91S S96A gH12 D54E (Fab, V domains shown)
VH: B1 VH with G49S, S73N, V78L
VL: B1 VL with V2I, V3Q, S96A
notes: V-regions only; also called 11041gL14gH18
The molecule B23 had an equilibrium dissociation constant (Kd) in assay [1] of 0.0676 nM.

B24: 11041gL7 C91S S96A gH11 D54E (Fab, V domains shown)
VH: B1 VH with I48V, S73N, V78L
VL: B1 VL with V2I, V3Q, S96A
notes: V-regions only; also called 11041gL14gH17
For B24, the Kd in assay [1] was found to be 0.0617 nM.

B25: 11041gL1gH8 (Fab, V domains shown)
VH: B1 VH with E54D, V78L
VL: B1 VL with S91C
notes: V-regions only
As to B25, in assay [1], the Kd came out at 0.274 nM.

B26: 11041gL6 C91S gH11 D54E (Fab, V domains shown)
VH: B1 VH with I48V, S73N, V78L
VL: B1 VL with V3Q
notes: V-regions only; also called 11041gL11gH17
For B26, in assay [1], binding was characterised by a dissociation constant (Kd) of 0.0516 nM.

B27: 11041gL7gH1 (Fab, V domains shown)
VH: B1 VH with E54D
VL: B1 VL with V2I, V3Q, S91C
notes: V-regions only
B27 came in with a Kd in assay [1] of 0.446 nM.

B28: 11041gL6 C91S gH8 D54E (Fab, V domains shown)
VH: B1 VH with V78L
VL: B1 VL with V3Q
notes: V-regions only; also called 11041gL11gH15
On to B28, for which, in assay [1], the dissociation constant Kd is 0.106 nM.

B29: 11041gL1 C91S S96A gH5 D54E (Fab, V domains shown)
VH: B1 VH with S73N
VL: B1 VL with S96A
notes: heavy chain is the gH5 D54E (gH14) Fab heavy chain; also called 11041gL10gH14
In assay [1], B29 yielded a Kd of 0.0233 nM.

B30: 11041gL7 C91S gH11 D54E (Fab, V domains shown)
VH: B1 VH with I48V, S73N, V78L
VL: B1 VL with V2I, V3Q
notes: V-regions only; also called 11041gL12gH17
With B30, in assay [1], the Kd stood at 0.0666 nM.

B31: 11041gL1 C91S S96AgH15 (Fab, V domains shown)
VH: B1 VH with V78L
VL: B1 VL with S96A
notes: V-regions only; also called 11041gL10gH15; gH15 = gH8 D54E
B31 showed a dissociation constant Kd in assay [1] of 0.079 nM.

B32: 11041gL1 S96A gH1 (Fab, V domains shown)
VH: B1 VH with E54D
VL: B1 VL with S91C, S96A
notes: V-regions only; also called 11041gL9gH1
In assay [1], B32 registered a Kd of 0.2 nM.

B33: 11070gL1gH13 (Fab, V domains shown)
VH: EVQLQESGPGLVKPSQTLSLTCTVSGFSLTSYSVHWVRQHSGKGLEWMGRMWSDGDTSYNTAFTSRLTISRDTSKSQVSLKLSSVTAADTAVYYCARSLDFYYDTTLAFWGQGTTVTVSS
VL: DIVMTQSPSSVSASVGDRVTITCKASKTISKYLAWYQQKPGKANKLLIYSGSTLQSGTPSRFSGSGSSTDFTLTISSLQPEDFATYYCQQHNEYPLTFGQGTKLEIK
notes: V-regions only; also called 11070gL1gH1 S61T
Regarding B33, the Kd in assay [2] was 0.0317 nM.

B34: 11070gL7gH16 Fab (Fab, V domains shown)
VH: B33 VH with S41P, M48I, S76N
VL: DIQMTQSPSSVSASVGDRVTITCKASKTISKYLAWYQQKPGKANKLLIYSGSTLQSGVPSRFSGSGSGTDFTLTISSLQPEDFATYYCQQHNEYPLTFGQGTKLEIKR
notes: also called VR11070
With B34, the dissociation constant Kd in assay [2] was found to be 0.0257 nM.

B35: 11070gL1gH1 (Fab, V domains shown)
VH: B33 VH with T61S
VL: B33 VL
notes: V-regions only
Molecule B35 returned a Kd in assay [2] of 0.0368 nM.
